Residue numbers refer to the chain shown, from its start.

This is an account of results in patent US7105166.

In experiment [1] the target is B7 antigen (B7-1, CD80) expressed on cells (human) (UniProt P33681). Kind of experiment: B7-1+ CHO cell enzyme immunoassay; binding activity relative to CTLA4Ig, from the concentrations giving the same A450.
For experiment [2] the target is unchanged. Kind of experiment: enzyme immunoassay on fixed B7-1+ CHO cells.

Chain of B7 antigen (B7-1, CD80) expressed on cells (human) (P33681 35-288): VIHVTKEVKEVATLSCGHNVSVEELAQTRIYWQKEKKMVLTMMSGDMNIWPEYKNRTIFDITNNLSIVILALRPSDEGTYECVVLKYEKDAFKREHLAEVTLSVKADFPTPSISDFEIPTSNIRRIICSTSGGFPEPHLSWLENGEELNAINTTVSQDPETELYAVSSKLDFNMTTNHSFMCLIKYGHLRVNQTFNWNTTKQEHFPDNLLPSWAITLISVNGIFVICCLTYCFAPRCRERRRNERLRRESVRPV

B1: CTLA4/CD28Ig hybrid fusion protein HS4-B (Fc fusion, not shown: a dimerising Fc or GST)
chain: NKILVKQSPMLVAYDNAYNLSCKYSYNLFSREFRASLHKGLDSAVEVCVVYGNYSQQLQVYSKTGFNCDGKLGNESVTFYLQNLYVNQTDIYFCKIEVMYPPPYLDNEKSNGTIIYVIDPEPCPDSD
With B1, the % B7 binding activity in experiment [1] came to 5%.

B2: CTLA4/CD28Ig hybrid fusion protein HS9 (Fc fusion, not shown: a dimerising Fc or GST)
chain: B1 chain with S25A, Y26S, N27P, L28G, F29K, S30A, R31T
In experiment [1], B2 gave a % B7 binding activity of 5%.

B3: CTLA4/CD28Ig hybrid fusion protein HS8 (Fc fusion, not shown: a dimerising Fc or GST)
chain: NKILVKQSPMLVAYDNAYNLSCKYASPGKATEFRASLHKGLDSAVEVCVVYGNYSQQLQVYSKTGFNCDGKLGNESVTFYLQNLYVNQTDIYFCKIELMYPPPYYLGIGNGTQIHVKGKHLCPS
B3: the % of wild type binding in experiment [2] is 60%. This molecule also displayed a % B7 binding activity in experiment [1] of 56%.

B4: CTLA4/CD28Ig hybrid fusion protein HS7 (Fc fusion, not shown: a dimerising Fc or GST)
chain: NKILVKQSPMLVAYDNAYNLSCKYASPGKATEFRASLHKGLDSAVEVCVVYGNYSQQLQVYSKTGFNCDGKLGNESVTFYLQNLYVNQTDIYFCKIELMYPPPYYLGIGNGTQIYVIDPEPCPDSD
For B4, the % binding activity relative to CTLA4Ig in experiment [2] was found to be 44%. In experiment [1], this molecule gave a % B7 binding activity of 44%.
